Assay results as given in the DeepSol protein solubility set.

Test: soluble on expression in E. coli; label from the status in PepcDB or PDB records

Row | Sequence | soluble on expression in E. coli
1 | MSQVSIIIPTLNEAASLGRTLRQLTLLNPPAKEVIVVDGGSEDETIAIAKQNFESFRQATGVQVIFCERRGRSVQMNYGALSATGDILCFLHADTWVPDDLVAVIEKTLAETKVSCGGFISLMTGSQTTRWGISLHNYLKTYYAPLLFKPHLFFQGLRLLFGDQVMFCRRNDFWDCGGFNEELPIMEDGDLCLKLVQKGRIALVNRIVQSSDRRVARWGSWKATAIYLYIGVLWGIGVDANYLKQFYQDIRLEHHHHHH | soluble
2 | MSLYDPAEKYFNCTDIQRAFFEAGIKLGAIFHQYTGIPVNSENASMAEEFIERSTMIQPFVENVRISINNVKRSSGTYSYSSLNEKMLHAEVLINYNGKKVLGVLNYDEGLDYPVMYAKEVLEGHHHHHH | soluble
3 | MGSDKIHHHHHHVLSNPSQVVLRNIELFESKNVLLINHECDLLATALLEDAAKVTTLALDFNHFQRIKSHENARLQCHFGHQLPSTQTFDAVVLFYPKSKSLAPYLLNLAGRHLIPGGELVIVGEKKGGIRSITKQLPDYFDGGIKLDNARHCMLYSSSLLSEAPEIKLSDWVKDYVLSTPQGELTICNLVGVFSEKRLDEGTELLLEHLPTLKGRVLDFGCGAGVITAALLKANPDLELECVDINAMALASCELTLAANGMQAKVYASDGLTQTQGMFDAIISNPPFHDGLDSTTEIATRFVQESEAQLKSGGIFQIVANRHLPYSDTIAKFFKTVNVAAENNKYKIYANRKA | not soluble
4 | MAMAVPVSARPQSPAEGFYAINNQFQTNGPKGFSEIKILANEDMFLRMDLPGVPDEGGLSVYHNRSQETVVVFAKAPKVHTHDSTERRYQTMTGIGCSCCAISSITTHMSDGVFRVILSKTRIDPHRSPCTDPALTGPVLQPHPLAFPQPTMAYESKQLPNGKLFVRADMPGVPKENFTVSVTNGRVKVTGQAPAVSHDSSGRFYSGDVAMLSTPVDIPSRRIKTIAKNGVIRLLIPPF | soluble
5 | MSLSNTSASFGFKDVDASLKAGLVRGVFDRVAKNYDIMNDLMSGGVHRLWKDAVAARLNPQPGEVIIDCAGGTGDMARRFAKMARKAQERRGGPDATINIVDYNAEMIMAGIERGGEPEITWTVGDAQRLPLPDAYADAYVISFGIRNVTDINAALREARRVLKPGGRFLCLEFSRPVTEPLAKAYDAYSFKVIPQVGEWVAKDRDAYQYLVESIRRFPDQRTFAGMIEAAGFKRVTFTNFTGGVAALHQGWAIEGHHHHHH | not soluble
6 | MAHHHHHHMPNSVDCDFLNAPAHPPCNNRISASSRSRDGASIRNIGSISNIGARNRGARNCDQVIHTVYVKYFEMERYLGNINYNMDYFNPVLNHPTKIEHGKIKILILDAPTNDLLPLYIKEMKNYNVTDLVRTCERTYNDGEITSAGINVHELIFPDGDAPTVDIVSNWLTIVNNVIKNNRAVAVHCVAGLGRAPVLASIVLIEFGMDPIDAIVFIRDRRKGAINKRQLQFLKAYKKKKKKKNCLRKCHFM | not soluble
7 | MSLKAVIFDLDGVITDTAEYHFLAWKHIAEQIDIPFDRDMNERLKGISREESLESILIFGGAETKYTNAEKQELMHRKNRDYQMLISKLTPEDLLPGIGRLLCQLKNENIKIGLASSSRNAPKILRRLAIIDDFHAIVDPTTLAKGKPDPDIFLTAAAMLDVSPADCAAIEDAEAGISAIKSAGMFAVGVGQGQPMLGADLVVRQTSDLTLELLHEEWEQYRIRESEGHHHHHH | soluble
8 | MSKNDHRITHNKSDKDNLDDDFSLFRDEVKGVKKLRQDTILHAPNRNPKQKEIRRTEREASDNDFYFSDEFMPHLTDEGPTRYARSDVSKYEVKRLRRGVYVPDVFLDMHGMTQQEAKRELGAMIAYCLKENVHCACVQHGIGKHILKQNVPLWLAQHPDVLAFHQAPLEFGGDGALLVLLSIPEK | not soluble
9 | MEDGRTSDKVLEKIQEKIFSGEWKPGQKIMSETKLAEDLNVSRVSVREAIEKLAAFNIVSKKKGGGTFINDLGPSVYLNSLLPMLILNRDNYLEILEFRLITEPESAKLCAERCDDELIISLEKIYDNMKNYKDDIQKFTKEDLNFHTKIAEGTKNSLIIKINELLMNILEYHQRGLYETLGPKGGICEHKFILDAIKNRDSELAFIYSRRHAERTINDLKKLQT | not soluble
10 | MGSDKIHHHHHHMLIRLGYEIAIECAEATPVISLLEIHKDRQADIKRQTRVLTSPSVPTKLYHDLHGNGCRRFTAPAGTFRILYDAVIEDSGETDEVNTLAREVPVAELPDEVLFYLLGSRYCETDHLSSLAWQLFGHLPSGWARVQAIVDYVHNRLSFGYGYARSTRTAAQAHEERVGVCRDFAHLAITLCRCMNIPARYVNGYLGDIGVPIDPAPMDFSAWMEVFLDGKWYTFDPRHNQPRTGRIVIARGRDATDVPLLHSFGPHRLCLFKVWTYEQEGRSFNPPHRGIDRTVSAQMLA | not soluble
11 | NTRGMALFADGGLIATKPYSASGSYINKMSDYCASCAYQVKLKSGEKACPLNSLYWRFMLKHRDRLANNPRIGMLYKTWDKMTSDSQQAILSTADAYLSQIESL | not soluble
12 | MAHHHHHHMTEYALSLYVTLPSSFPKAAPRATMPYCCHNVPITPPNINPSEALAYQWSSTTSTLVEAVRNAFQNAADCWGPVEPPSMRSVTLQLSGETDRLLQDLVTNPNCLDAYCYQLPIVKLMREASRHTVSEIERVANENTTLRNEVETLEAQVKDLQRYLDEQVSQLQQLEQNRLLLSVGTPEALIKTLEDDVRRMSSDCMTLGRRALDAYKADKGGFQDLLKQYKAQSKATHMLDLKRLSYRAQCAAS | not soluble
13 | MSLSDSENGGSKTAILCNDLADSYLESYPTVTLEDGVTRTYHNGVYQECRNKYIINNRMMDIAEDMGIVLTPKQIQDALEIVRNKTPFTESKTPINLIPVGNGVLDINTMELSDYSPETVLLTKFPRDYNPSAATPSKFMEMLNTTFDGSEEQIKLVQEMFGYCFLRSYFLEVIFFLIGNGRNGKTTLLSILGALLGGEESGHISSLSFKDLSEPKNENMLCDLYGRYANICGDTGKHKIKETDYIKKVTGNDFVRARKLYKDSFNFKSFAKVILAFNQLPEVDDFSDGFKRRIRIIEFNHKFEDGAGANKNIEAEITGDEEEMEGIFLWAMEGLKRILENNSFSDKRSIVSRGMEYARKSNPMHYFVRECIVESPGHFVNKADLIEKYVEYAEYNKMPQLTPQAFKKGLIAECTDISINTFEKRDQTKTGRPFGFMHIDIDLESWKKHTGKADNASPVEPKEDSKQTQFKELEIQIATTDEEIRKVAEDMASTASEGHHHHHH | soluble
14 | MVDYDKQMKTWIRSQHLICVGSDFIFETVDQTQLDKFETCIRGMGGRIRTVKAVGNWPMGPRRSFKILQATASVPRPGGEALVTYWAKKGSKTTRYSEISS | soluble
15 | MTTEQEFEKVELTADGGVIKTILKKGDEGEENIPKKGNEVTVHYVGKLESTGKVFDSSFDRNVPFKFHLEQGEVIKGWDICVSSMRKNEKCLVRIESMYGYGDEGCGESIPGNSVLLFEIELLSFRELE | soluble
16 | MNNSLIVRQLGLQDYQEIWHKMQDFTDTRNAETQDEIWLVQHYPVFTQGQAGKPEHLLQRSEIPVVQSVRGGQITYHAPGQQVMYVLIDIKRHKNLNVRQLVTALEQTVVKTLAEYGIESYPKPDAPGVYVDGKKICSLGLRIRRGCSFHGLALNINMDLNPFHYINPCGYAGLEMCQLADFVNQDKADCDNVSAKLIKHFANLLGYNITTLLEHHHHHH | soluble
17 | MGSDKIHHHHHHMAQGTLYIVSAPSGAGKSSLIQALLKTQPLYDTQVSVSHTTRQPRPGEVHGEHYFFVNHDEFKEMISRDAFLEHAEVFGNYYGTSREAIEQVLATGVDVFLDIDWQGAQQIRQKMPHARSIFILPPSKIELDRRLRGRGQDSEEVIAKRMAQAVAEMSHYAEYDYLIVNDDFDTALTDLKTIIRAERLRMSRQKQRHDALISKLLAD | soluble
18 | MGSDKIHHHHHHMKRAYAMPLTNPSFPPGPYRFFDREYIIITYRTTREALEAVVPAPLEIDEPLVKYEFIRMPDSTGFGDYTETGQVIPVKYKGQHGGYVHSMYLDDDAPIAGGRELWGFPKKLANPKIVHEGEVIVGTLHYGSVLCATGTMGYKHREADHDSVLASLAAPNFLIKIIPHVDGGPRICELVRYYLTDITLKEAWTAPAALDLRPHVMADVAKLPVLDIISAVHFKADLTLGLGEVVHDYLSDHNRLATSTTQPEKIRA | not soluble
19 | MAHHHHHHMNPLYTDSISYSASDANITLPQQSMPQWANTNATASRVSAAPATAGEQAQQGNFASSLNSAGGFSVHVGSDAARSTLCSPKIATESLTAAAATTTTTKATTAVRRAPFLNPPPQQPLSGTRNRLSAPGSPAMYRSGPPIGFGGGPNYYYQYGGNTFIQDGKQQENEYYPPLPMSTPFHPVTAITKLVPLPHPKTGRGGIPAIFRFWGPIGSPAPRTPVPVPSLPNAGGVAATVFLAAIPISLVPQQMHPLSPRHPATGGSPAASSPLGGGESMGMSLVEVHHHSNGSSLGAGSPTAPAITPAPATAAAGASAVNLTVRVRRRTGGGNTAAIRVGGGASLAPLQLPSQGTSSLGASLTTLATTGPAKGPGTPFKHSPITPSNLPPAPLFAQSAPAQLLVDDSGSQRLSPTSMLPTNLVNEGSKTKGESVLRVDEDTYMQREAFRWNPYASTKWAQNRSNSTGASTSDSRGRLPVEGGSGSG | soluble
20 | MGSDKIHHHHHHMTEFAIELTGINKSFGAVKANRDVTMSVPKGSIHGIIGENGAGKSTLMSILYGYYHADSGTIRVNGKDVRIRNSQEAIRLGIGMVHQHFMLVETFTVLENIVLGAEGGRLLKGGMEQAREHLKELNKNYSLEVDPDALVGDLGVGLQQRVEILKALYRGADVLILDEPTAVLTPQEADHLFHILRSLKAQGKTVILITHKLREVMDITDNVSVMRAGTVVDNVRTCDVDKEKLADLMVGRKVSLKVDKADSQAGAAVLDVQGLTLIDERKVKLLDNLNFQVRAGEIVGIAGVSGNGQSELLEVLAGMRDPSAGAVVYKGEDLLKLPCRRKPRAAVYRQRGIGHIPEDRSREGLVKAFSTFENAILGYHDDKTLNSGPLYSRKKLVERTRDFIAQFDIRPGNPLLRVGLLSGGNQQKVVLAREIHANPDLLLIGQPTRGVDIGAIEFIHKRLIELRDEGKAILLVSVELEEILALSDRILVMAGGQITGEVAAKDADTISLGLLMGGHKH | not soluble
21 | LQSKLSLPKIPNVIECFDISHLSGTATVGSMVQFRGGRPDKHNYRRFKIESVEGIDDFASIAEVVRRRYSRLLEDKHEMPDLIIIDGGKGQLSSAFQELRKLRVKVPIISIAKREEEIYVPGLKSPLPIKKDEKASLFVQEIRDEAHRFAINYNRLLRQKALIQK | not soluble
22 | EIGLLLAILLFMKRVTENTRITVATGRLDLTQTGEIAHHDEVLDIPKGVEVYEIEGPFFFGIANRFEEIMNTLGDHPDVRIIRMRHVPFMDSTGMHNLENLIKMSRKEGVSIVLSGVRKDVHEELATAGIVELLGEENVCADIQAALRQAQAIAQGA | not soluble
23 | MPKKNNTKRAPPSVPKPSGPPPRLLQLTSSDGHLLQGDIRALLLSSTLAATIRELGYDKEYCAELKPVPVNNVVGFTLKLLIEWCDKHKEDDPAIALAEKDKKNICIPSWDRHFLSRLPMSNLFDLITAAYHLDVTGLINYGCKTVANSAKGKNAEEMRELFGIPEPWEQPSTSTATWDD | not soluble
24 | MGSDKIHHHHHHMTEKVSRFPGVFPLIVIGVPGSVDKTHKKLAFAPNLNRWRDIDVEKYFKVFEVYLENDANLAALAEMMRNKHFGDRKNIVYILVREGIGGGIIIEGKLYKGSFNAAGEIGHMKMYDRGPCFCGRVGCWEANTSISHCVRQYEKKKPLPGNTMYEKFETLCRIYEEDPLAKEVLDEFTGILIDGIVNLVNILSPEIVIVGGEGVFLPESVFEVIVSETRRQVHPMDKEVSVEKGSLSNKEVVLEGTSILSSMMISERLV | not soluble
